Results published in patent publication US20160040149A1, “Compositions Having Dicamba Decarboxylase Activity and Methods of Use” (priority 2013, published 2016).

Key:
[1] = DNA shuffling libraries: 14CO2 capturing assay in 384-well format, fold activity of backbone (Megatable 2); settings: relative to backbone SEQ ID NO: 133 (DDEC0201)
[2] = Saturation mutagenesis of SEQ ID NO:109: dicamba decarboxylation activity of point mutants (CO2 released), fold of backbone (Tables 7, 8, Megatable 1); settings: decarboxylation activity (CO2 released) of point mutant vs unmutated backbone protein; backbone SEQ ID NO: 109

| Molecule | Fold Activity [1] [fold] | Fold Activity [2] [fold] |
| --- | --- | --- |
| 148 (protein, Dicamba decarboxylase variant) MAQGKEALEEHFAIPETLNDSAGFVPGDYWKELQHRLLDIQDTRLKLMDAHQIETMILSLAAVGVQAIPDRRKAIEIARRANDMLAEECAKRPDRFLAFAALPLQDVDAASEELQRTVNTLGFVGALVNGFSVEGDGQTPLYYDLPQYRPFWGEVEKLDVPFYLHPRNPLPQDSRIYDGHPWLLGPTWAFAQETAVHALRLMASGLFDEHPRLNIILGHLGEGLPYMMYRIDHRIAWVKLPPRYPAKRRFMDYFNENFHITTSGNFRTQTLIDAILEIGADRILFSTDWPFENIDHAAAWFNATSIAEADRVKIGRTNARRLFKLDGA | 0.8 | 1.5 |
| 138 (protein, Dicamba decarboxylase variant) MAQGKVALEEHFAIPETLQDSAGFVPGDYWKELQHRLLDIQDTRLKLMDAHGIETMILSLAAPAVQAIPDRRKAIEIARRANDFLAEECAKRPDRFLAFAALPLQDPDAATEELQRCVNDLGFVGALVNGFSQEGDGQTPLYYDLPQYRPFWGEVEKLDVPFYLHPRNPLPQDSRIYDGHPWLLGPTWAFAQETAVHALRLMASGLFDEHPRLNIILGHMGEGLPYMMYRIDHRIAWVHEPPRYPAKRRFMDYFNENFHITTSGNFRTQTLIDAILEIGADRILFSTDWPFENIDHAADWFNATSIAEADRLKIGRTNARRLFKLDLD | 1.1 | 0.7 |
| 143 (protein, Dicamba decarboxylase variant) MAQGKVALEEHFAIPETLQDSAGFVPSEYLKELQHRLLDIQDTRLKLMDAHGIETMILSLAAPAVQAIPDRRKAIEIARRANDFLAEECAKRPDRFLAFAALPMQDVDAATEELQRCVNDLGFVGALVNGFSVEGDGQTPLYYDLPQYRPFWGEVEKLDVPFYLHPRNPLPQDSRIYDGHPWLLGPTWAFAQETAVHALRLMASGLFDEHPRLNIILGHMGEGLPYMMYRIDHRIAWVHEPPRYPAKRRFMDYFNENFHITTSGNFRTQTLIDAILEIGADRILFSTDWPFENIDHAADWFNATSIAEADRVKIGRTNARRLFKLDGD | 1.3 | 1.2 |
| 150 (protein, Dicamba decarboxylase variant) MAQGKVALEEHFAIPETLQDSAGFVPGDYWKELQHRLLDIQDTRLKLMDAHGIETMILSLAAPAVQAIPDRRKAIEIARRANDFLAEECAKRPDRFLAFAALPLQDPDAATEELQRTVNDLGFVGALVNGFSQEGDGQTPLYYDLPQYRPFWGEVEKLDVPFYLHPRNPLPQDSRIYDGHPWLLGPTWAFAQETAVHALRLMASGLFDEHPRLNIILGHMGEGLPYMMYRIDHRIAWVKLPPRYPAKRRFMDYFNENFHITTSGNFRTQTLIDAILEIGADRILFSTDWPFENIDHAADWFNATSIAEADRVKIGRTNARRLFKLDGD | 1.1 | 1.4 |
| 149 (protein, Dicamba decarboxylase variant) MAQGKVALEEHFAIPETLQDSAGFVPSEYLKELQHRLLDIQDTRLKLMDAHGIETMILSLAAPAVQAIPDRRKAIEIARRANDMLAEECAKRPDRFLAFAALPLQDPDAATEELQRCVNTLGFVGALVNGFSVEGDGQTPLYYDLPQYRPFWGEVEKLDVPFYLHPRNPLPQDSRIYDGHPWLLGPTWAFAQETAVHALRLMASGLFDEHPRLNIILGHLGEGLPYMMYRIDHRIAWVHEPPRYPAKRRFMDYFNENFHITTSGNFRTQTLIDAILEIGADRILFSTDWPFENIDHAADWFNATSIAEADRVKIGRTNARRLFKLDGD | 1.1 | 1.6 |
| 146 (protein, Dicamba decarboxylase variant) MAQGKVALEEHFAIPETLQDSAGFVPGDYWKELQHRLLDIQDTRLKLMDAHGIETMILSLAAPAVQAIPDRRKAIEIARRANDFLAEECAKRPDRFLAFAALPLQDPDAATEELQRCVNDLGFVGALVNGFSQEGDGQTPLYYDLPQYRPFWGEVEKLDVPFYLHPRNPLPQDSRIYDGHPWLLGPTWAFAQETAVHALRLMASGLFDEHPRLNIILGHMGEGLPYMMYRIDHRIAWVKLPPRYPAKRRFMDYFNENFHITTSGNFRTQTLIDAILEIGADRILFSTDWPFENIDHAADWFNATSIAEADRVKIGRTNARRLFKLDGD | 1.2 | 1.3 |
| 147 (protein, Dicamba decarboxylase variant) MAQGKVALEEHFAIPETLQDSAGFVPGDYWKELQHRLLDIQDTRLKLMDAHGIETMILSLAAPAVQAIPDRRKAIEIARRANDFLAEECAKRPDRFLAFAALPMQDVDAATEELQRCVNDLGFVGALVNGFSQEGDGQTPLYYDLPQYRPFWGEVEKLDVPFYLHPRNPLPQDSRIYDGHPWLLGPTWAFAQETAVHALRLMASGLFDEHPRLNIILGHMGEGLPYMMYRIDHRIAWVKLPPRYPAKRRFMDYFNENFHITTSGNFRTQTLIDAILEIGADRILFSTDWPFENIDHAADWFNATSIAEADRLKIGRTNARRLFKLDLD | 0.8 | 1.3 |
| 145 (protein, Dicamba decarboxylase variant) MAQGKVALEEHFAIPETLQDSAGFVPGDYWKELQHRLLDIQDTRLKLMDAHGIETMILSLAAPAVQAIPDRRKAIEIARRANDFLAEECAKRPDRFLAFAALPLQDPDAATEELQRCVNDLGFVGALVNGFSVEGDGQTPLYYDLPQYRPFWGEVEKLDVPFYLHPRNPLPQDSRIYDGHPWLLGPTWAFAQETAVHALRLMASGLFDEHPRLNIILGHMGEGLPYMMYRIDHRIAWVKLPPRYPAKRRFMDYFNENFHITTSGNFRTQTLIDAILEIGADRILFSTDWPFENIDHATDWFNATSIAEADRVKIGRTNARRLFKLDGA | 1.1 | 1.2 |
| 139 (protein, Dicamba decarboxylase variant) MAQGKVALEEHFAIPETLQDSAGFVPGDYWKELQHRLLDIQDTRLKLMDAHGIETMILSLAAPAVQAIPDRRKAIEIARRANDFLAEECAKRPDRFLAFAALPLQDPDAATEELQRCVNDLGFVGALVNGFSQEGDGQTPLYYDLPQYRPFWGEVEKLDVPFYLHPRNPLPQDSRIYDGHPWLLGPTWAFAQETAVHALRLMASGLFDEHPRLNIILGHMGEGLPYMMYRIDHRIAWVKLPPRYPAKRRFMDYFNENFHITTSGNFRTQTLIDAILEIGADRILFSTDWPFENIDHAADWFNATSIAEADRLKIGRTNARRLFKLDGD | 1.1 | 1.4 |
| 140 (protein, Dicamba decarboxylase variant) MAQGKVALEEHFAIPETLQDSAGFVPGDYWKELQHRLLDIQDTRLKLMDAHGIETMILSLAAPAVQAIPDRRKAIEIARRANDFLAEECAKRPDRFLAFAALPLQDPDAATEELQRCVNDLGFVGALVNGFSQEGDGQTPLYYDLPQYRPFWGEVEKLDVPFYLHPRNPLPQDSRIYDGHPWLLGPTWAFAQETAVHALRLMASGLFDEHPRLNIILGHLGEGLPYMMYRIDHRIAWVHEPPRYPAKRRFMDYFNENFHITTSGNFRTQTLIDAILEIGADRILFSTDWPFENIDHAADWFNATSIAEADRVKIGRTNARRLFKLDGA | 1.1 | 1.1 |
| 144 (protein, Dicamba decarboxylase variant) MAQGKVALEEHFAIPETLQDSAGFVPGDYWKELQHRLLDIQDTRLRLMDAHGIETMILSLAAPAVQAIPDRRKAIEIARRANDFLAEECAKRPDRFLAFAALPLQDPDAASEELQRCVNDLGFVGALVNGFSQEGDGQTPLYYDLPQYRPFWGEVEKLDVPFYLHPRNPLPQDSRIYDGHPWLLGPTWAFAQETAVHALRLMASGLFDEHPRLNIILGHMGEGLPYMMYRIDHRIAWVHEPPRYPAKRRFMDYFNENFHITTSGNFRTQTLIDAILEIGADRILFSTDWPFENIDHAADWFNATSIAEADRLKIGRTNARRLFKLDGD | 1.2 | 1.2 |
| 141 (protein, Dicamba decarboxylase variant) MAQGKVALEEHFAIPETLNDSAGFVPGDYWKELQHRLLDIQDTRLKLMDAHGIETMILSLAAPAVQAIPDRRKAIEIARRANDMLAEECAKRPDRFLAFAALPLQDPDAATEELQRCVNDLGFVGALVNGFSQEGDGQTPLYYDLPQYRPFWGEVEKLDVPFYLHPRNPLPQDSRIYDGHPWLLGPTWAFAQETAVHALRLMASGLFDEHPRLNIILGHMGEGLPYMMYRIDHRIAWVHEPPRYPAKRRFMDYFNENFHITTSGNFRTQTLIDAILEIGADRILFSTDWPFENIDHAADWFNATSIAEADRVKIGRTNARRLFKLDLD | 0.9 | 1.1 |
| 142 (protein, Dicamba decarboxylase variant) MAQGKVALEEHFAIPETLQDSAGFVPGDYWKELQHRLLDIQDTRLKLMDAHGIETMILSLAAPAVQAIPDRRKAIEIARRANDFLAEECAKRPDRFLAFAALPLQDPDAATEELQRTVNDLGFVGALVNGFSQEGDGQTPLYYDLPQYRPFWGEVEKLDVPFYLHPRNPLPQDSRIYDGHPWLLGPTWAFAQETAVHALRLMASGLFDEHPRLNIILGHLGEGLPYMMYRIDHRIAWVHEPPRYPAKRRFMDYFNENFHITTSGNFRTQTLIDAILEIGADRILFSTDWPFENIDHAADWFNATSIAEADRVKIGRTNARRLFKLDLD | 1.4 | 1 |
| 151 (protein, Dicamba decarboxylase variant) MAQGKVALEEHFAIPETLQDSAGFVPGDYWKELQHRLLDIQDTRLKLMDAHGIETMILSLAAPAVQAIPDRRKAIEIARRANDFLAEECAKRPDRFLAFAALPLQDPDAATEELQRCVNDLGFVGALVNGFSQEGDGQTPLYYDLPQYRPFWGEVEKLDVPFYLHPRNPLPQDSRIYDGHPWLLGPTWAFAQETAVHALRLMASGLFDEHPRLNIILGHMGEGLPYMMYRIDHRIAWVHQPPRYPAKRRFMDYFNENFHITTSGNFRTQTLIDAILEIGADRILFSTDWPFENIDHAADWFNATSIAEADRVKIGRTNARRLFKLDGD | 1.0 | 1.9 |
